According to US20260364186A1, “Chemical Conjugates, Compositions, and Methods of Preparation and Use Thereof” (Transfection Holdings Limited, priority 2022, published 2026):
Entries after “also recorded” stand apart in the source; their conditions may differ.

Key:
[1] = Whole body fluorescent cryo-imaging, tissue distribution (Example 13); assay type: in vivo, mouse; conditions: 0.7 mg/kg i.v., 1 hour post dosing
Description: Materials and methods: Compound 124 was supplied as a 10 mM stock solution in DMSO. NZM011 cells were grown in AMEM, 5% FBS, 5 μg/mL insulin, 5 μg/mL transferrin, 5 ng/mL sodium selenite at 37 °C with 5% O2, 90% N2 5% CO2. The study was performed in 6-week-old male NIH-III athymic mice (strain code 201). Work was carried out by Ichor Biosciences La Fayette NY, USA. Mice were injected on one flank with 5×10^6 NZM11 cells in a 50:50 matrigel:media suspension with a 22G needle. When tumours reach over 500 mm3 the mice were administered intravenously (tail vein) with a solution of compound 124 in phosphate buffered saline at a dose of 0.7 mg/kg. The mice were euthanized at 1 hour or 6 hours post dosing and frozen for cryoimaging. A control mouse received no tumour cells or compound 124 and was euthanized and frozen for cryoimaging at the same time as the treated mice.
Processed animals were cryoimaged imaged at BioInvision in Cleveland Ohio. Whole animal was sectioned at 40 microns and imaged using brightfield at fluorescent modes (503 nm). In-plane pixel size 10 microns. Mouse #1 with tumour on one flank at 500 mm3, treated with compound 124 (0.7 mg/kg) and euthanised 1 hour post treatment. Mouse #6 no tumour or compound 124 treatment euthanised on same day.

[2] = tested on: PBMCs / normal blood cells; assay: FACS uptake of BODIPY FL conjugates in PBMCs (Example 3); assay type: cell-based, human; conditions: 135 nM
Description: (§1) FIG. 3A. Conjugate compounds coupled to BODIPY FL were tested for uptake using 135 nM each conjugate and 4.5 minute incubation with human lymphocytes, monocytes and neutrophils (from a healthy donor). Mean fluorescent intensities (MFI). 1,000 cells (lymphocytes), 500 cells (monocytes) and 250 cells (neutrophils) sorted by FACS. Bars represent mean±SD. Results represent a single experiment done in duplicate.
(§2) In addition to this, 25 mL of full blood was collected from a healthy donor in lithium-heparin vacutainer. Peripheral blood mononuclear cells (PBMCs) were collected after ficoll separation. PBMCs then were centrifuge at 400 g for 5 minutes. Supernatant was removed from the cells and resuspended with 20 mL of HBSS with a final concentration of 417,500 cells/mL. Then, 479 μL of cells suspension were poured into Eppendorf tube and 1000 μL of 200 nM drug solution in HBSS were added to afford 135 nM final drug concentration, incubated at 37 °C for 5 minutes. After incubation time, PBMCs were centrifuged at 400 g for 5 minutes. Supernatant was removed from the cells and pellet resuspended with 200 μL of HBSS. Suspension was transferred to 96 well-plate and run on FACS machine, approximately 1,000-250 cells analysed. The FACS results output represented the mean of the fluorescence intensities (in arbitrary units) measured for cells sorted in every sample.

neutrophils = assay: as above; assay type: cell-based, human; conditions: 135 nM
Description: as §1, §2

monocytes = assay: as above; assay type: cell-based, human; conditions: 135 nM
Description: as §1, §2

SMILES	124-specific fluorescence in bladder [1]	124-specific fluorescence in kidneys [1]	fluorescence in any other tissues [1]	route of excretion [1]	uptake [2]	targeting / fluorescence intensities (neutrophils)	targeting / fluorescence intensities (monocytes)
CC1=CC(C)=[N+]2C1=Cc1ccc(CCCn3cc(CCNC(=O)/C=C/NC(=O)[C@H](O)C(C)(C)CO)nn3)n1[B-]2(F)F [Compound 124]	strong 124-specific fluorescence; also recorded: Specific 124-fluorescence was observed; also recorded: strong fluorescence observed in the bladder; also recorded: Fluorescence specific for compound 124 was seen	124-specific fluorescence was observed in the kidney medulla and kidneys (mainly renal medulla)	No fluorescence	renal clearance; also recorded: renal route	no significant uptake	–	–
CC1=CC(C)=[N+]2C1=Cc1ccc(CCCn3cc(CCNC(=O)/C=C/NC(=O)[C@@H]4OC(C)(C)OCC4(C)C)nn3)n1[B-]2(F)F [Compound 125, (R,E)-N-((((3-[4,4-difluoro-5,7-dimethyl-4-bora-3a,4a-diaza-s-indacene-3-yl]propyl)-1H-1,2,3-triazol-4-yl)eth-ylamino)-3-oxoprop-1-enyl)-2,2,5,5-tetramethyl-1,3-dioxane-4-carboxamide]	–	–	–	–	–	showed targeting	showed targeting
